Measurements published in the supplement of paper PMC9170038.

Assays:
MS2 coat protein [1] = experiment: apparent KD of MS2 coat protein, switch ON state; designed switch direction (-1 OFF switch, 1 ON switch): -1; higher = weaker reporter binding; conditions: FMN input: 0 or 200 uM; Eterna round: R93 (includes R88 designs)
How it was run: (§1)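 Designed RNA switches were made by on-chip transcription from Illumina sequencing clusters and then titrated with SNAP-549-labelled MS2 coat protein. Twofold steps ran from 0.7 or 1.5 nM to 3 µM, each lasting 0.8–1.5 h early and 10–20 min late, in 100 mM Tris-HCl pH 7.5, 80 mM KCl, 4 mM MgCl2, without or with constant ligand. Apparent KD is the per-design median of normalised cluster binding-curve fits.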

MS2 coat protein [2] = experiment: apparent KD of MS2 coat protein, switch OFF state (with FMN for OFF switches, without FMN for ON switches); designed switch direction (-1 OFF switch, 1 ON switch): -1; higher = weaker reporter binding; conditions: FMN input: 0 or 200 uM; Eterna round: R93 (includes R88 designs)
How it was run: as §1

| Sequence | apparent KD of MS2 coat protein (MS2 coat protein [1]) [nM] | apparent KD of MS2 coat protein (MS2 coat protein [2]) [nM] |
| --- | --- | --- |
| AAAAAGAGAGGAUAUACAUGAGGAUCACCCAUGUGAAAGACGAAAAAAAGUCUAAAAUGUAGAAGGCUCAAAAA [65%, Moding Exclusion3-cac2, 13] | 23.1 | 89.7 |
| AGAAAACAUGAGGAUCACCCAUGUCAGGAUAUCGAUGUCCAAAAAAAAGUGCGGGACUCGAGAAGGGACUUGGG [Mod of Erbelaed v.2 (favor state 2,lowered kcal by 2.7)] | 27.2 | 24.6 |
| CGUUGGCGAGGAUAUACAUGAGGAUCACCCAUGUGAGAGAAAAAAGUGAGAAAGAAAAGUAGAAGGCGCUGACU [salish99-ex3-11] | 43.6 | 132 |
| GCUUGUGAAGGAUAUACAUGAGGAUCACCCAUGUGAGAGAAAAAAGUGAGAAAGAAAAGUAGAAGGUCGUGAGG [salish99-ex3-79] | 36.1 | 37 |
| AAGAAUGGAGGAUAUACAUGAGGAUCACCCAUGUAAAAGAAAGAAGGGAAAGAGAAAAGUAGAAGGCCAAAGAA [Khuinefertemre Taharqa] | 26.5 | 53.8 |
| AAGAAACAUGAGGAUCACCCAUGUGAGGAUAUUGAAGAAAGAAAGAAAGAAAGAAGAACAAGAAGGCACAAAGG [Quintus Magnus Maximus] | 26.9 | 35 |
| CUCUUGUGAGGAUAUCUAAGAAAAGAAGAGAAAGAAAAGAAAGAGAAGGCACAUGAGGAUCACCCAUGUAAGAA [EteRNA is fun!] | 29 | 56.1 |
| AGUUGGCGAGGAUAUACAUGAGGAUCACCCAUGUGAGAGUAAGAAGUGAGAAAGAGAAGUAGAAGGCGCUGACA [Ruby 55] | 46.5 | 220 |
| AAAAAACAUGAGGAUCACCCAUGUAAGGAUAUACAAAACCCAUAUAAAAAGGGAAAAAGUAGAAGGUGCAAAAA [wbt round 1 mod 7] | 22.5 | 23.1 |
| AAAAAACAUGAGGAUCACCCAUGUGAGGAUAUGAUGCGAAUAAAGAAAGAAGAAAGCAUCAGAAGGCACACCUA [Disincluded 3 (MS2 Riboswitches)] | 26.3 | 59.9 |
| AAAAAGUCAGGAUAUGUACGAAAAAAUAAAAAAAUAAAAGUACAGAAGGGACAUGAGGAUCACCCAUGUCAGGG [EX4 393: Minimal 5] | 67.5 | 118 |
| GAAACUAGAGGAUAUACGAACAUGUCAAAAGACGUGAAGGGACAUGAGGAUCACCCAUGUAGAAGGCUAGAAAG [Mat - Exclusion 2 - JL mod - D100] | 39.5 | 35.1 |
| ACGUGACAUGAGGAUCACCCAUGUUAGGAUAUGCGAAUUCAAAAUCAGCUAACGCUGAGCAGAAGGAACAUGGU [Esriange] | 36.2 | 88.9 |
| AAAAAGGCAGGAUAUACGUACAUGUCGAAAGACGUGAAGGGACAUGAGGAUCACCCAUGUAGAAGGGUCAAGAA [Mat - Exclusion 2 - JL mod - D77] | 111 | 93.4 |
| AACAGGUCAGGAUAUGUGGAAAAAAUAAAAAAAAUAAAAACACAGAAGGGACAUGAGGAUCACCCAUGUAAAAA [May 20] | 59.5 | 75.6 |
| AAGAAGGCAGGAUAUACUAAAGAAAUGAAAAGAAAUAAAGAACAUGAGGAUCACCCAUGUAGAAGGGCCAAGAA [Khakherewre] | 35.2 | 24.1 |
| AGGAAACAUGAGGAUCACCCAUGUGAGGAUAUUCAAAAGAAAAGAAAAGAAAGAAGAAGAAGAAGGUACAAGAA [Neferefre] | 28.3 | 29.9 |
| ACGUACUGAGGAUAUACGAACAUGUCAAAAGACGUGAAGGGACAUGAGGAUCACCCAUGUAGAAGGCAGUACGA [Mat - Exclusion 2 - JL mod - D7] | 60.7 | 172 |
| AGAUAGUCAGGAUAUACGAAAAUGUAAAAAGAAGUGAAGGGACAUGAGGAUCACCCAUGUAGAAGGGACUAGAA [74%, Web mod - With 5 less C's] | 100 | 86.6 |
| GAAAAGUCAGGAUAUACAGAUAAAAAAACGAAAAAAAAUCUGUAGAAGGGACAUGAGGAUCACCCAUGUAAAAG [Mat - Exclusion 4 - Mayanna - D101] | 47.3 | 33.2 |
| AAGAAACAUGAGGAUCACCCAUGUGAGGAUAUCUAAAAGAAAAGAAAAGAAAGAAGAAGGAGAAGGCACAAAGG [H—] | 34.3 | 29 |
| AAAAAGGUAGGAUAUACAUGAGGAUCACCCAUGUAAAAAAAAACAGAAAAAAACAAAUGUAGAAGGGCCAAAAA [Ex3 Malc#5] | 25.9 | 35.6 |
| GAGAUACAUGAGGAUCACCCAUGUGAGGAUAUCGGUUGGAGGAGGUGGAGGUUGAGUACGAGAAGGCACGGAUG [salish99-Ex1-10] | 24.9 | 31.1 |

| Sequence | apparent KD of MS2 coat protein (MS2 coat protein [1]) [nM] | apparent KD of MS2 coat protein (MS2 coat protein [2]) [nM] |
| --- | --- | --- |
| AAAAAGUGAGGAUAUUCGGAUAGGAAAACGAAAACCUAUCCGAAGAAGGCACAUGAGGAUCACCCAUGUGGAAG [Mat - Exaclusion 4 - Eli mod - D47] | 37.2 | 48.3 |
| GUGAAGGAAGGAUAUACAAAGGGACGUUAUAAGAGAAGAAGACAUGAGGAUCACCCAUGUAGAAGGUCCAGAUC [Beorteesri] | 25.9 | 43.5 |
| AAAGAUGGAGGAUAUACAUGAGGAUCACCCAUGUAAAAAAAAAAGAGGGAAAAAGAAAGUAGAAGGCCACAAAA [Ex 3 May 44] | 83.1 | 46.4 |
| AAAUUGUCAGGAUAUCGUAUAAUAUGGAAAACAUAGAGAUACGAGAAGGGACAUGAGGAUCACCCAUGUAAAAC [May 96] | 36.1 | 31.1 |
| GGGAAACAUGAGGAUCACCCAUGUGAGGAUAUGCUAUGGAAAAUAAAAAUAAAACAUAGCAGAAGGCAUAAAAA [Denovo 11] | 30.6 | 37 |
| AAGAAGACAGGAUAUACAAAAUAAAAGAAAAGAAAGAAAGAACAUGAGGAUCACCCAUGUAGAAGGGUCAAGAA [Sekhemkare Amenemhat V] | 69.9 | 31.1 |
| AAUAACCGAGGAUAUACAAAACCUGUGAUCUAGUGGAUUUUACAUGAGGAUCACCCAUGUAGAAGGCGGACAAG [Atdiiste] | 49.9 | 183 |
| AGGUAGUCAGGAUAUGCGUGAAGAAUAAAACAAAUAACAACGCAGAAGGGACAUGAGGAUCACCCAUGUUAAGA [May 48] | 36.1 | 31.7 |
| AACAUACAUGAGGAUCACCCAUGUCAGGAUAUGCCGGGUUAGAGCCAACUGAAAAAACGUAGAAGGGACGAAAA [Bilbo Confounded 7 - Jieux - Exclusion 1] | 110 | 90.3 |
| AGAAAACAUGAGGAUCACCCAUGUAAGGAUAUGCUGAAAAACACGGAAAAAACGUGCAGCAGAAGGUACAAAAA [Mat - Exclusion 1 - Eli mod - D97] | 17.8 | 38.6 |
| AAGAAGGCAGGAUAUACAAAAUAAAAGAAAAGAAAGAAAGAACAUGAGGAUCACCCAUGUAGAAGGGUCAAGAA [Sankhenre Sewadjtu] | 47.9 | 37.2 |
| GCUGUCCUAGGAUAUACAUGAGGAUCACCCAUGUGAGAGAAAAAAGUGAGAAAGAAAAGUAGAAGGAGGGUAGG [salish99-ex3-104] | 30.4 | 44.4 |
| GAAAAACAUGAGGAUCACCCAUGUGAGGAUAUACGAAAGUAGAAGGCACUAAAAGAAAAGAGAAGGAGAAAAGA [Meechl Ex1 R2 m2] | 19.9 | 38.8 |
| AGUUGGCGAGGAUAUACAUGAGGAUCACCCAUGUGAGAGAAAAAAGUGAAAAAGAAAAGUAGAAGGCGCUGACA [73%, Moding Norbert Elias, 3] | 47.9 | 195 |
| ACCAAUGCAGGAUAUACAUGAGGAUCACCCAUGUAUAACCUACAUAGAUGAUAAAAAUGUAGAAGGGCAUUGGA [EX3 232: Super Stable 32] | 16 | 20.3 |
| CAGUACUGAGGAUAUACAUGAGGAUCACCCAUGUGAAAAAGCUACGAAAGUAGCAAAUGUAGAAGGCAGUACUG [Ex3: 806] | 28.9 | 273 |
| CUCGUGUUAGGAUAUGGAUAGCCGUUUGACGAGCGAGGGCACUAGAAGGAACAUGAGGAUCACCCAUGUAAAAA [Velema] | 29.4 | 28.1 |
| AACUGACAUGAGGAUCACCCAUGUCAGGAUAUGAUUUGACGAAAUAAAUAAAGUCAUAUCAGAAGGGACAUGGA [Design 80: Sub-opt U] | 25 | 50.4 |
| AAACCACAUGAGGAUCACCCAUGUUAGGAUAUGCUAUGGAAAUAAAAAAUAAAACAUAGCAGAAGGGACAAAAA [Mat - Exclusion 1 - Eli mod - D35] | 19.7 | 19.3 |
| AAAACGCUAGGAUAUACGAAAAAAAAGGGAGAAAAAAAGGGACAUGAGGAUCACCCAUGUAGAAGGAGCAAAAA [Diamond 88] | 38.5 | 105 |
| AAGGGACAUGAGGAUCACCCAUGUUAGGAUAUGCAAAUAACAAACAACAAACAACAAAGCAGAAGGGACAAAAA [Mat - Exclusion 1 - Eli mod - D54] | 37.5 | 29.3 |
| AAAGUGUGAGGAUAUGUCAAAGGUCACGAAAGUGACAAAGGGCAGAAGGUACAUGAGGAUCACCCAUGUAAAAA [Opal 1] | 24 | 19.9 |
